Common to all, as to assay: UV peptide exchange + HLA class I ELISA; % of Pos control peptide
Common to all, as to details: remark: other sources report otherwise

Assay [1] concerns the target HLA-A*01:01 class I complex (biotinylated heavy chain with beta2-microglobulin) (human).
In assay [2] the target is HLA-A*03:01 class I complex (biotinylated heavy chain with beta2-microglobulin) (human).
Assay [3] concerns the target HLA-B*07:02 class I complex (biotinylated heavy chain with beta2-microglobulin) (human).
For assay [4], the target named is HLA-A*24:02 class I complex (biotinylated heavy chain with beta2-microglobulin) (human).
For assay [5], the target named is HLA-A*02:01 class I complex (biotinylated heavy chain with beta2-microglobulin) (human).

For YLRRQKRLK (here or on the partner: biotinylated heavy chain) [P60 9-mer neoantigen peptide … (FOXA1.p.F266L missense)], the exchange rate with Pos peptide in assay [1] was 3.1%; in assay [2], 36.6%; in assay [3], 6.1%; in assay [4], 0.9%; in assay [5] it was 7.9%.
LMAQRLLLR (here or on the partner: biotinylated heavy chain) [P97 9-mer neoantigen peptide … (FOXRED2-TXN2 fusion)]: the exchange rate with Pos peptide in assay [1] was found to be 2.5%; in assay [2] it was 39%; in assay [3], 7%; in assay [4], 0.1%; in assay [5] it was 4.6%.
For YCMAAPMGL (here or on the partner: biotinylated heavy chain) [P76 9-mer neoantigen peptide … (AR-V3 splice variant)], in that order: 0.1%, 6%, 91.5%, -0.5% and 85.9%.
For YQFTFDLLI (here or on the partner: biotinylated heavy chain) [P48 9-mer neoantigen peptide … (AR.p.H875Y missense)], in that order: 4.3%, 4.4%, 12.8%, 0.1% and 99.3%.
Consider HVPKILSGK (here or on the partner: biotinylated heavy chain) [P58 9-mer neoantigen peptide … (AR (Q903H) missense)], for which the exchange rate with Pos peptide in assay [1] worked out at 2.5%; in assay [2], 32.5%; in assay [4] it was 0.2%; in assay [5], 11.8%.
Turning to RAVRRMNTF (here or on the partner: biotinylated heavy chain) [P17 9-mer neoantigen peptide … (MSMB-NOCA4 fusion)], the exchange rate with Pos peptide came out at 4.9% in assay [1], 3.8% in assay [2], 38.7% in assay [3] and 0.1% in assay [4].
Take IPVLTRWPL (here or on the partner: biotinylated heavy chain) [P19 9-mer neoantigen peptide … (TMEM222-LOC644961 fusion)]: the exchange rate with Pos peptide in assay [1] is 5.2%; in assay [2] it was 4.1%; in assay [3], 91.3%; in assay [4], 0.1%; in assay [5] it was 8.2%.
As to CPMSRLRLA (here or on the partner: biotinylated heavy chain) [P46 9-mer neoantigen peptide … (TP53 (R213D) frameshift)], the exchange rate with Pos peptide in assay [1] was 2.4%; in assay [2], 10.3%; in assay [3] it was 64.8%; in assay [4], -0.4%; in assay [5], 14.4%.
The corresponding values for IVWWCPMSR (here or on the partner: biotinylated heavy chain) [P98 9-mer neoantigen peptide … (TP53 (R213D) frameshift)] are 2.5%, 51.1%, 6.7%, -0.1% and 7.9%.
For RAKCKFSIL (here or on the partner: biotinylated heavy chain) [P56 9-mer neoantigen peptide … (SPOP(F102C) missense)], in that order: 2.6%, 6.8%, 82.5%, 0.5% and 8.4%.
Take CYLGRQKRF (here or on the partner: biotinylated heavy chain) [P61 9-mer neoantigen peptide … (FOXA1.p.R261G missense)]: the results for the exchange rate with Pos peptide in assay [1], in assay [4] and in assay [5] were 1.7%, 90.3% and 5.8%, respectively.
As for QLIAMDSAI (here or on the partner: biotinylated heavy chain) [P22 9-mer neoantigen peptide … (SLC45A3-ELK4 fusion)], the exchange rate with Pos peptide in assay [1] turned out to be 4.4%; in assay [2], 4.8%; in assay [3], 8.3%; in assay [4], 0%; in assay [5], 46.9%.
The corresponding values for FLFLLLPLS (here or on the partner: biotinylated heavy chain) [P87 9-mer neoantigen peptide … (AR-Intron splice variant)] are 1.1%, 2.4%, 5%, 0.2% and 64%.
For RVGNCKHLK (here or on the partner: biotinylated heavy chain) [P82 9-mer neoantigen peptide … (AR-V7 splice variant)], in that order: 1.5%, 58.1%, 12.9%, -0.1% and 6.3%.
As for LLERNSFEV (here or on the partner: biotinylated heavy chain) [P73 9-mer neoantigen peptide … (TP53 (G266E) missense)], the exchange rate with Pos peptide amounted to 3.5% in assay [2], 8.7% in assay [3], 0.5% in assay [4] and 89.2% in assay [5].

(Values after patent publication US20240139265A1.)
